± gives the standard error. For some assays here: Fewer inactive variants are shown than the library holds.
B1: glmS ribozyme (parent)
chain: AUAAAAGCGCCAGAACUACAGAAAUGUAGUUGACGAGGAGGAGGUUUAUCGAAUUUUCGGCGGAUGCCUCCAAA

How the values were obtained:
Conditions in all cases: with glucosamine-6-phosphate
glucosamine-6-phosphate [1] = variants of: B1; assay: kcat; higher = faster cleavage; RNA array
Procedure, shortened: (§1)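 Barcoded ribozyme variants, transcribed in situ by E. coli RNA polymerase on sequenced MiSeq chips, were followed via a hybridised Cy3 probe at 37 °C. Glucosamine-6-phosphate ranged from 40 μM to 10 mM in HEPES/KCl/Mg(OAc)2 buffer. kobs came from decay fits to per-tile medians, and kcat and KM from weighted Michaelis–Menten fits.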

glucosamine-6-phosphate [2] = variants of: B1; assay: self-cleavage kobs at 640 uM GlcN6P; higher = faster cleavage; RNA array
Procedure, shortened: as §1

glucosamine-6-phosphate [3] = variants of: B1; assay: self-cleavage kobs at 40 uM GlcN6P; higher = faster cleavage; RNA array
Procedure, shortened: as §1

glucosamine-6-phosphate [4] = variants of: B1; assay: self-cleavage kobs at 160 uM GlcN6P; higher = faster cleavage; RNA array
Procedure, shortened: as §1

glucosamine-6-phosphate [5] = variants of: B1; assay: KM; higher = weaker cofactor use; RNA array
Procedure, shortened: as §1

glucosamine-6-phosphate [6] = variants of: B1; assay: self-cleavage kobs at 2500 uM GlcN6P; higher = faster cleavage; RNA array
Procedure, shortened: as §1

glucosamine-6-phosphate [7] = variants of: B1; assay: self-cleavage kobs at 10000 uM GlcN6P; higher = faster cleavage; RNA array
Procedure, shortened: as §1

C34A G38C
kcat (glucosamine-6-phosphate [1]): < 1e-05 s⁻¹ | self-cleavage kobs at 640 uM GlcN6P (glucosamine-6-phosphate [2]): < 1e-05 s⁻¹

G32C A53C
kcat (glucosamine-6-phosphate [1]): 3.63e-05 ± 2.4e-06 s⁻¹ | self-cleavage kobs at 40 uM GlcN6P (glucosamine-6-phosphate [3]): < 1e-05 s⁻¹ | self-cleavage kobs at 160 uM GlcN6P (glucosamine-6-phosphate [4]): < 1e-05 s⁻¹ | self-cleavage kobs at 640 uM GlcN6P (glucosamine-6-phosphate [2]): < 1e-05 s⁻¹

G32C A53U
kcat (glucosamine-6-phosphate [1]): 0.000101 ± 5.9e-06 s⁻¹ | KM (glucosamine-6-phosphate [5]): 7.51 ± 0.93 mM | self-cleavage kobs at 40 uM GlcN6P (glucosamine-6-phosphate [3]): < 1e-05 s⁻¹ | self-cleavage kobs at 160 uM GlcN6P (glucosamine-6-phosphate [4]): < 1e-05 s⁻¹ | self-cleavage kobs at 2500 uM GlcN6P (glucosamine-6-phosphate [6]): 2.59e-05 ± 6.8e-06 s⁻¹ | self-cleavage kobs at 10000 uM GlcN6P (glucosamine-6-phosphate [7]): 5.79e-05 ± 5e-06 s⁻¹

G32C A53G
kcat (glucosamine-6-phosphate [1]): 0.000158 ± 4.6e-06 s⁻¹ | KM (glucosamine-6-phosphate [5]): 3.34 ± 0.2 mM | self-cleavage kobs at 640 uM GlcN6P (glucosamine-6-phosphate [2]): 2.67e-05 ± 9.1e-06 s⁻¹ | self-cleavage kobs at 2500 uM GlcN6P (glucosamine-6-phosphate [6]): 6.68e-05 ± 8.8e-06 s⁻¹ | self-cleavage kobs at 10000 uM GlcN6P (glucosamine-6-phosphate [7]): 0.000119 ± 1.5e-05 s⁻¹

A33C G66A
kcat (glucosamine-6-phosphate [1]): 0.000291 ± 4.1e-05 s⁻¹ | KM (glucosamine-6-phosphate [5]): 2.47 ± 0.58 mM | self-cleavage kobs at 640 uM GlcN6P (glucosamine-6-phosphate [2]): 6.35e-05 ± 9.2e-06 s⁻¹ | self-cleavage kobs at 2500 uM GlcN6P (glucosamine-6-phosphate [6]): 0.00013 ± 2.3e-05 s⁻¹ | self-cleavage kobs at 10000 uM GlcN6P (glucosamine-6-phosphate [7]): 0.000257 ± 4.6e-05 s⁻¹

G32U U55A
kcat (glucosamine-6-phosphate [1]): 0.00193 ± 0.00061 s⁻¹ | KM (glucosamine-6-phosphate [5]): 9.31 ± 4.5 mM | self-cleavage kobs at 40 uM GlcN6P (glucosamine-6-phosphate [3]): 2.84e-05 ± 1e-05 s⁻¹ | self-cleavage kobs at 160 uM GlcN6P (glucosamine-6-phosphate [4]): 4.22e-05 ± 1.4e-05 s⁻¹ | self-cleavage kobs at 640 uM GlcN6P (glucosamine-6-phosphate [2]): 0.000132 ± 2e-05 s⁻¹ | self-cleavage kobs at 2500 uM GlcN6P (glucosamine-6-phosphate [6]): 0.000332 ± 5.9e-05 s⁻¹ | self-cleavage kobs at 10000 uM GlcN6P (glucosamine-6-phosphate [7]): 0.00102 ± 8.2e-05 s⁻¹

G32A U54A
kcat (glucosamine-6-phosphate [1]): 0.00386 ± 0.001 s⁻¹ | KM (glucosamine-6-phosphate [5]): 3.52 ± 1.3 mM | self-cleavage kobs at 40 uM GlcN6P (glucosamine-6-phosphate [3]): 6.3e-05 ± 1.3e-05 s⁻¹ | self-cleavage kobs at 160 uM GlcN6P (glucosamine-6-phosphate [4]): 0.000125 ± 2.9e-05 s⁻¹ | self-cleavage kobs at 640 uM GlcN6P (glucosamine-6-phosphate [2]): 0.00067 ± 0.00011 s⁻¹ | self-cleavage kobs at 2500 uM GlcN6P (glucosamine-6-phosphate [6]): 0.00157 ± 0.00026 s⁻¹ | self-cleavage kobs at 10000 uM GlcN6P (glucosamine-6-phosphate [7]): 0.00286 ± 0.00045 s⁻¹

G32C C67G
kcat (glucosamine-6-phosphate [1]): 2.22e-05 ± 2.6e-06 s⁻¹ | KM (glucosamine-6-phosphate [5]): 2.06 ± 0.98 mM | self-cleavage kobs at 10000 uM GlcN6P (glucosamine-6-phosphate [7]): 1.85e-05 ± 8.6e-06 s⁻¹

A33C C70G
kcat (glucosamine-6-phosphate [1]): < 1e-05 s⁻¹ | self-cleavage kobs at 160 uM GlcN6P (glucosamine-6-phosphate [4]): < 1e-05 s⁻¹ | self-cleavage kobs at 2500 uM GlcN6P (glucosamine-6-phosphate [6]): < 1e-05 s⁻¹ | self-cleavage kobs at 10000 uM GlcN6P (glucosamine-6-phosphate [7]): < 1e-05 s⁻¹

A33G G59U C68A C71A
kcat (glucosamine-6-phosphate [1]): 2.2e-05 ± 6.5e-06 s⁻¹

A33U U46C
kcat (glucosamine-6-phosphate [1]): 2.23e-05 ± 3.7e-06 s⁻¹

C34G G60U
kcat (glucosamine-6-phosphate [1]): < 1e-05 s⁻¹ | self-cleavage kobs at 40 uM GlcN6P (glucosamine-6-phosphate [3]): < 1e-05 s⁻¹ | self-cleavage kobs at 2500 uM GlcN6P (glucosamine-6-phosphate [6]): < 1e-05 s⁻¹

A33U G40C
kcat (glucosamine-6-phosphate [1]): 5.14e-05 ± 7.9e-06 s⁻¹

A33U U47G
kcat (glucosamine-6-phosphate [1]): 4.65e-05 ± 3.9e-06 s⁻¹ | self-cleavage kobs at 40 uM GlcN6P (glucosamine-6-phosphate [3]): < 1e-05 s⁻¹ | self-cleavage kobs at 2500 uM GlcN6P (glucosamine-6-phosphate [6]): 4.09e-05 ± 6.6e-06 s⁻¹ | self-cleavage kobs at 10000 uM GlcN6P (glucosamine-6-phosphate [7]): 4.2e-05 ± 5.3e-06 s⁻¹

G32A U49G
kcat (glucosamine-6-phosphate [1]): 5.97e-05 ± 1.4e-06 s⁻¹ | KM (glucosamine-6-phosphate [5]): 0.741 ± 0.085 mM | self-cleavage kobs at 40 uM GlcN6P (glucosamine-6-phosphate [3]): < 1e-05 s⁻¹ | self-cleavage kobs at 640 uM GlcN6P (glucosamine-6-phosphate [2]): 2.83e-05 ± 1.2e-05 s⁻¹ | self-cleavage kobs at 2500 uM GlcN6P (glucosamine-6-phosphate [6]): 4.58e-05 ± 1.1e-05 s⁻¹ | self-cleavage kobs at 10000 uM GlcN6P (glucosamine-6-phosphate [7]): 5.56e-05 ± 8.3e-06 s⁻¹

G32C G60A
kcat (glucosamine-6-phosphate [1]): < 1e-05 s⁻¹ | self-cleavage kobs at 40 uM GlcN6P (glucosamine-6-phosphate [3]): < 1e-05 s⁻¹

G32A U47G
kcat (glucosamine-6-phosphate [1]): 0.00115 ± 0.0003 s⁻¹ | KM (glucosamine-6-phosphate [5]): 3.78 ± 1.6 mM | self-cleavage kobs at 160 uM GlcN6P (glucosamine-6-phosphate [4]): 5.19e-05 ± 1.5e-05 s⁻¹ | self-cleavage kobs at 640 uM GlcN6P (glucosamine-6-phosphate [2]): 0.000142 ± 3e-05 s⁻¹ | self-cleavage kobs at 2500 uM GlcN6P (glucosamine-6-phosphate [6]): 0.000687 ± 0.00015 s⁻¹ | self-cleavage kobs at 10000 uM GlcN6P (glucosamine-6-phosphate [7]): 0.000806 ± 0.00013 s⁻¹

A33G C71A
kcat (glucosamine-6-phosphate [1]): < 1e-05 s⁻¹ | self-cleavage kobs at 40 uM GlcN6P (glucosamine-6-phosphate [3]): < 1e-05 s⁻¹ | self-cleavage kobs at 160 uM GlcN6P (glucosamine-6-phosphate [4]): < 1e-05 s⁻¹ | self-cleavage kobs at 10000 uM GlcN6P (glucosamine-6-phosphate [7]): < 1e-05 s⁻¹
